Test results as given in the PETadex activity labels (doi:10.1042/bj3320075).

What was measured:
Conditions in all cases: pH 7.1; 25 °C
p-NP-C2 = substrate: p-NP-C2
p-NP-C3 = substrate: p-NP-C3
p-NP-C4 = substrate: p-NP-C4
p-NP-C5 = substrate: p-NP-C5
p-NP-C6 = substrate: p-NP-C6
p-NP-C8 = substrate: p-NP-C8

B1: unnamed (protein)
chain: MKPENKLPVLDLISAEMKTVVNTLQPDLPPWPATGTIAEQRQYYTLERRFWNAGAPEMATRAYMVPTKYGQVETRLFCPQPDSPATLFYLHGGGFILGNLDTHDRIMRLLASYSQCTVIGIDYTLSPEARFPQAIEEIVAACCYFHQQAEDYQINMSRIGFAGDSAGAMLALASALWLRDKQIDCGKVAGVLLWYGLYGLRDSVTRRLLGGVWDGLTQQDLQMYEEAYLSNDADRESPYYCLFNNDLTREVPPCFIAGAEFDPLLDDSRLLYQTLAAHQQPCEFKLYPGTLHAFLHYSRMMKTADEALRDGAQFFTAQL
How did the Km (p-NP-C2) turn out when B1 was run?
Its Km is 1500 µM.

What about the kcat (p-NP-C2) of the same protein?
Its kcat is 30.8 s⁻¹.

What about the kcat/Km (p-NP-C2) of the same protein?
The kcat/Km was 20500 M⁻¹ s⁻¹.

And the Km (p-NP-C3)?
The Km was 700 µM.

What about the kcat (p-NP-C3) of the same protein?
The kcat was 30.9 s⁻¹.

And the kcat/Km (p-NP-C3)?
The kcat/Km was 44100 M⁻¹ s⁻¹.

And the Km (p-NP-C4)?
The Km was 500 µM.

What about the kcat (p-NP-C4) of the same protein?
Its kcat is 30.9 s⁻¹.

And the kcat/Km (p-NP-C4)?
The kcat/Km was 61800 M⁻¹ s⁻¹.

And the Km (p-NP-C5)?
Its Km is 260 µM.

And the kcat (p-NP-C5)?
The kcat was 20.5 s⁻¹.

What about the kcat/Km (p-NP-C5) of the same protein?
The kcat/Km was 78800 M⁻¹ s⁻¹.

What about the Km (p-NP-C6) of the same protein?
Its Km is 220 µM.

What about the kcat (p-NP-C6) of the same protein?
The kcat was 6.2 s⁻¹.

What about the kcat/Km (p-NP-C6) of the same protein?
Its kcat/Km is 28200 M⁻¹ s⁻¹.

And the Km (p-NP-C8)?
Its Km is 160 µM.

What about the kcat (p-NP-C8) of the same protein?
The kcat was 0.21 s⁻¹.

What about the kcat/Km (p-NP-C8) of the same protein?
Its kcat/Km is 1310 M⁻¹ s⁻¹.
